Data reported in US20240158489A1.

Columns and labels:
Conditions in all cases: bispecific antibody
huANG2 [1] = biological target: huANG2 (UniProt O15123); test: -; FIG. 2A
huVEGF = huVEGF (UniProt P15692); test: -; FIG. 2B
huANG2 [2] = biological target: huANG2 (UniProt O15123); test: -; FIG. 2B

Sequence of huANG2 (O15123 19-496): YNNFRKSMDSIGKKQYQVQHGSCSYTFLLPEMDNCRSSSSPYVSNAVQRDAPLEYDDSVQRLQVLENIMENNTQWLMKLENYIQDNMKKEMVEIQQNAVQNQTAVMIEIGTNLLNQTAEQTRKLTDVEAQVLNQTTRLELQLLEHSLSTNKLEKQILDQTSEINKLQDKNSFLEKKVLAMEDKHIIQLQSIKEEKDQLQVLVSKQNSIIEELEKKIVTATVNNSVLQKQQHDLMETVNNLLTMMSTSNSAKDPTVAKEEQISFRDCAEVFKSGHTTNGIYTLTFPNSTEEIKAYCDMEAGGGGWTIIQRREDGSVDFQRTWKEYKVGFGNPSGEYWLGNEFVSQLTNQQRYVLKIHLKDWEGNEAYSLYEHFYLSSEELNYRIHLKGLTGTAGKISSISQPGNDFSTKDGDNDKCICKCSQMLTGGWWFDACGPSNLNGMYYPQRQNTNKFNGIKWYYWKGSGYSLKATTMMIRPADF
Sequence of huVEGF (P15692 other isoform, or with tags, fused parts or gaps): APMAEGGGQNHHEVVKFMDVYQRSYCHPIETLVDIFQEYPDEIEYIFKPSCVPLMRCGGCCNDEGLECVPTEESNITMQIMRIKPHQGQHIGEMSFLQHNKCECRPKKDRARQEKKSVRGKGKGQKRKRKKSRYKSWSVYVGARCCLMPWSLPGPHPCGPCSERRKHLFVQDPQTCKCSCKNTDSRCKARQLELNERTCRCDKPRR

- Kd (huANG2 [1]): 32.1 nM
- Kd (huVEGF): 1.37 nM
- Kd (huANG2 [2]): 32.1 nM
Substance: anti-ANG-2×VEGF bispecific antibody ABP201
